Results on three molecules are retold here after patent publication US20250195629A1, “SITE-SPECIFIC BRAIN THERAPEUTICS” (William Marsh Rice University, priority 2023, published 2025).

For data set [1] the following is noted: previously available approach; cited from earlier work.
The nature of data set [2]: Ex vivo BLI of brain sections, retention of unmodified or engineered RLuc8.6. It counts as in vivo, mouse. The text has this: (§1) FUS-BBBO—C57BL/6J male or female mice (12-18 weeks of age) were anaesthetized with 2.5% isoflurane in 1.5% O2 and shaved on top of skull using a trimmer. A catheter, made by a 30-gauge needle connected to PE10 tubing, was inserted into the tail vein, affixed in place using tissue glue and then flushed with 10 units (U) mL^−1 of heparin in sterile saline (0.9% NaCl). Subsequently, the mouse was mounted on the RK50 (FUS Instruments) stereotactic platform using the ear bars and bite bar/nose cone. A midline scalp incision was vertically made to expose the skull after disinfecting the site using three alternating scrubs of chlorhexidine scrub and chlorhexidine solution. The locations of Lambda and Bregma were registered in the RK50 software using the guild pointer. Next, sterile ultrasound gel was applied on the surface of skull before placing the ultrasound transducer in a tank, both of which were filled with degassed water. The mice were then sequentially injected via tail vein with purified recombinant protein in PBS buffer and approximately 1.5×10^6 DEFINITY microbubbles (Lantheus) per gram of body weight diluted in sterile saline. Immediately after injections of protein and microbubbles, the mice were insonated using RK-50 FUS system with axial and lateral diameter of 5 mm and 1.2 mm, respectively.
Ex vivo analysis of engineered RLuc8.6—FUS was performed to target three sites in the left hemisphere of C57BL6J mice (n=5 mice per group) immediately after systemic administration of RLuc8.6 (20 mg/mL, 100 mg/kg) or engineered variant (20 mg/mL, 104 mg/kg) and microbubbles by tail vein injection. The dose of engineered RLuc8.6 was increased accordingly based on their molecular weight for injecting the same number of molecules as unmodified RLuc8.6. The control group (n=5 mice) was injected intravenously with the same dose of unmodified RLuc8.6 without FUS. The mice were euthanized using CO2 without perfusion at two time points (2-day and 7-day) after FUS-BBBO procedure. Immediately afterwards, the brains were extracted, washed with ˜20 mL PBS buffer in a 50 mL conical tube for 30 s, and then cut into 2 mm sections without olfactory bulb and brainstem using a coronal Slicer (Invitrogen). The sections were individually transferred into a 6-well glass bottom plate (Cellvis) filled with 2 mL PBS buffer. BLI was performed using an IVIS spectrum imager (Perkin Elmer) immediately after adding 1 mL dissolved CTZ (cat #303-INJ, Nanolight Technology) with a final concentration of 10 μM. The parameters used here were similar as in vivo BLI with is of exposure time and field of view C. The average radiance (p/s/cm^2/sr) of each brain section was quantified with the Living Image software (Caliper Life Sciences) and summed to compare the activity retention of RLuc8.6 among different groups.

Data set [3] in a line: Mouse body weight analysis. Set-up: key to Significance of body weight difference between day 0 and 3 days after systemic administration: ns (not significant). It counts as in vivo. The following applies: for Weight loss: day 0 vs 2 days after injection, RLuc8.6 100 mg/kg, AADC-IKVAV 250 mg/kg. How it is done:
To assess the potential impact of the RAID approach on the body weight of the mice involved in behavior analysis (n=11 mice for the FUS alone+L-DOPA group and n=14 mice for the FUS+AADC-IKVAV (SEQ ID NO: 23)+L-DOPA group), their body weight was recorded on a daily basis before and after FUS-BBBO administration. […] The body weight of the additional group of mice was also recorded in a similar manner; however, unintentionally four mice were omitted from weighing on the day following the AADC-IKVAV (SEQ ID NO: 23) injection. Similarly, the mouse body weight was recorded before and after the intravenous injection of unmodified or engineered RLuc8.6, which is related to the study presented in FIG. 5.

Data set [4] can be described thus: Immunohistochemical analysis of RLuc8.6 after FUS-BBBO delivery. It counts as in vivo, mouse. The note with it: 150 mg/kg i.v., FUS-BBBO 4 sites left striatum, 1 h post-delivery.
Excerpt: as §1, with “The mice were then sequentially injected via tail vein with purified recombinant protein in PBS buffer and approximately 1.5×10^6 DEFINITY microbubbles (Lantheus) per gram of body weight diluted in sterile saline. Immediately after injections of protein and microbubbles, the mice were insonated using RK-50 FUS system with axial and lateral diameter of 5 mm and 1.2 mm, respectively.” left out
Histological imaging—All histological images were obtained using a fluorescence microscope (BZ-X810, Keyence). To evaluate RLuc8.6 retention, as depicted in FIG. 2b and FIG. 3, we acquired fluorescence images of striatal sections using a ×4 objective in DAPI (nuclei) and far-red (RLuc8.6) channels. […]

Data set [5] in a line: In vivo bioluminescent imaging (BLI) of RLuc8.6 in the head region. Set-up: species or system mouse.
Excerpt: as §1
In vivo BLI—Two groups of mice (n=7 mice for FUS+RLuc8.6 group and n=3 mice for FUS alone group) underwent FUS-BBBO targeting one site at left striatum immediately after i.v. injection of RLuc8.6 (2 mg/mL, 8 mg/kg) or equivalent volume of PBS buffer. The third group of mice (n=6) was injected intravenously with the same dose of RLuc8.6 without FUS-BBBO procedure. BLI was conducted 1 h, 24 h, 48 h and 96 h after FUS insonation with an IVIS spectrum imager (Perkin Elmer). […] The bioluminescence signal was quantified by calculating the average radiance (p/s/cm^2/sr) in the head region of view C imaging using the Living Image software (Caliper Life Sciences).

The mark [6] stands for this setting: FUS-BBBO + protein i.v., RLuc8.6-IKVAV 104 mg/kg.

On to `NCCCC(=O)O` [GABA], for which, in data set [1], the “time the drug lasts in the brain after FUS-BBBO delivery” value is “approximately 100 minutes”.

B1: RLuc8.6-IKVAV: fusion of RLuc8.6 and ECM-mimicking peptide IKVAV (SEQ ID NO: 23) via GS linker; CDS SEQ ID NO: 18 (protein)
chain: MRGSHHHHHHGMASMTGGQQMGRDLYDDDDKDPMASKVYDPEQRKRMITGPQWWARCKQMNVLDSFINYYDSEKHAENAVIFLHGNATSSYLWRHVVPHIEPVARCIIPDLIGMGKSGKSGNGSYRLLDHYKYLTAWFELLNLPKKIIFVGHDWGSALAFHYAYEHQDRIKAIVHMESVVDVIESWMGWPDIEEELALIKSEEGEKMVLENNFFVETLLPSKIMRKLEPEEFAAYLEPFKEKGEVRRPTLSWPREIPLVKGGKPDVVQIVRNYNAYLRASDDLPKLFIESDPGFFSNAIVEGAKKFPNTEFVKVKGLHFLQEDAPDEMGKYIKSFVERVLKNEQGGSGSSGGSGGSGGSGIKVAV
modifications: misc_feature 1..1095 Synthetic: RLuc8.6-IKVAV
In the case of B1, the “mean activity improvement over unmodified RLuc8.6” value in data set [2] (2 days after FUS-BBBO, sum of average radiance in five sections) is 2.3(±0.3) fold. In data set [2] (7 days after FUS-BBBO), the “bioluminescence vs RLuc8.6 alone control at 7 days” value was “significantly different”. In addition, the “level of bioluminescence vs control group without applying FUS” value in data set [2] (FUS-BBBO delivery, stated with FIG. 5e (7 days)) is reported as 113(±33) fold. Moreover, in data set [2] (after a single session of FUS-BBBO delivery), the “duration of retention in the brain” value turned out to be 1 week. Further, in data set [3] (FUS-BBBO + protein i.v.), the “Significance of body weight difference between day 0 and 3 days after systemic administration” value is on record as “ns”; the “weight loss on day 3 compared to day 0” value is “no significant weight loss”. In addition, the Weight loss in data set [3] (setting [6]) was 3.2±0.8%.

B2: RLuc8.6: recombinant His-tagged luciferase, model protein enzyme converting coelenterazine into coelenteramide; CDS SEQ ID NO: 17 (protein)
chain: MRGSHHHHHHGMASMTGGQQMGRDLYDDDDKDPMASKVYDPEQRKRMITGPQWWARCKQMNVLDSFINYYDSEKHAENAVIFLHGNATSSYLWRHVVPHIEPVARCIIPDLIGMGKSGKSGNGSYRLLDHYKYLTAWFELLNLPKKIIFVGHDWGSALAFHYAYEHQDRIKAIVHMESVVDVIESWMGWPDIEEELALIKSEEGEKMVLENNFFVETLLPSKIMRKLEPEEFAAYLEPFKEKGEVRRPTLSWPREIPLVKGGKPDVVQIVRNYNAYLRASDDLPKLFIESDPGFFSNAIVEGAKKFPNTEFVKVKGLHFLQEDAPDEMGKYIKSFVERVLKNEQ
modifications: His tag; misc_feature 1..1032 Synthetic: RLuc8.6
Consider B2, for which the “enzyme function within the brain parenchyma” value in data set [2] (7-day timepoint) is on record as “remain functional”. Moreover, the “average fluorescence intensity of RLuc8.6 immunostaining, FUS target region vs untargeted contralateral site” value in data set [4] is given as “significantly higher immunostaining signal”. In data set [3] (FUS-BBBO + protein i.v.), the “Significance of body weight difference between day 0 and 3 days after systemic administration” value is “ns”; the “weight loss on day 3 compared to day 0” value is given as “no significant weight loss”. Further, the Weight loss in data set [3] (setting [6]) is reported as 3.4±0.7%. Further, in data set [3] (protein i.v. alone without FUS), the “Significance of body weight difference between day 0 and 3 days after systemic administration” value was “ns”; the Weight loss was determined as 2.1 ± 0.6%. In data set [5] (8 mg/kg i.v., from 24 hours after FUS-BBBO onwards), the “IVIS enzyme levels vs controls” value is recorded as “statistically indistinguishable from controls”. Further, in data set [5] (8 mg/kg i.v., one FUS site left striatum, 1 h after FUS-BBBO, CTZ 3.5 mg/kg i.p.), the “bioluminescence signal averaged over the entire brain, FUS+RLuc8.6 vs RLuc8.6 alone without FUS” value is listed as 2.2(±0.3) fold. Also, the “upper threshold of enzyme concentration increase within the targeted site vs untargeted controls” value in data set [5] (calculated from volume of single BBB opening site (1% of brain volume)) is “approximately 220 fold”.
